Laboratory results: paper PMC6009595

Biological target: H-NS (Salmonella enterica serovar Typhimurium …, UniProt A0A0F6B244 1-137)
Assay: fluorescence anisotropy

Sequence of H-NS (A0A0F6B244 whole entry): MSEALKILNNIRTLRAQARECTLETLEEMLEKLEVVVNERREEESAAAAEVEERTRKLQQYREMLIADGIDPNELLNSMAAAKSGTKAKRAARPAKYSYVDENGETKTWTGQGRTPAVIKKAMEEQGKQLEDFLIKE

B1: 36 bp pagC high-affinity H-NS site (HAhnsBS) (dsDNA)
DNA 1: ATGGGTTTTATAGCGAAATAGACTTTTTTATCGCGT
DNA 2: ACGCGATAAAAAAGTCTATTTCGCTATAAAACCCAT
B1: binds.
